Laboratory results from publication PMC12362244, “Fidelity, specialization, and evolution of Paramecium PolX DNA polymerases involved in programmed double-strand break DNA repair” (Nucleic Acids Research, 2025).
Numbering of substitutions follows the chain as printed. Names and notes keep the numbering of the source.

Columns and labels:
Test in all cases: steady-state single-nucleotide gap-filling, FAM-primer urea-PAGE, Michaelis-Menten fit
Details in all cases: 1 µM gap-filling DNA (continuous template), 5 nM enzyme, 5 mM MgCl2, pH 7.5, 27°C
[1] = substrate: Nc1nc2c(ncn2[C@H]2C[C@H](O)[C@@H](COP(=O)(O)OP(=O)(O)OP(=O)(O)O)O2)c(=O)[nH]1; format: biochemical, Homo sapiens
From the text: steady-state single-nucleotide gap-filling, FAM-primer urea-PAGE, Michaelis-Menten fit on Polλxt | all mutants underwent steady-state characterization in gap-filling context (Fig. 4B and C)

[2] = substrate: Nc1nc2c(ncn2[C@H]2C[C@H](O)[C@@H](COP(=O)(O)OP(=O)(O)OP(=O)(O)O)O2)c(=O)[nH]1; format: biochemical, Paramecium
[3] = substrate: Nc1nc2c(ncn2[C@H]2C[C@H](O)[C@@H](COP(=O)(O)OP(=O)(O)OP(=O)(O)O)O2)c(=O)[nH]1; format: biochemical, Homo sapiens; remark: listed apart in the source
From the text: steady-state single-nucleotide gap-filling, FAM-primer urea-PAGE, Michaelis-Menten fit on Polλxt | despite an almost normal KM in the […] range

[4] = substrate: Nc1nc2c(ncn2[C@H]2C[C@H](O)[C@@H](COP(=O)(O)OP(=O)(O)OP(=O)(O)O)O2)c(=O)[nH]1; format: biochemical, Homo sapiens; remark: listed apart in the source

B1: Polλxt (Homo sapiens; C543A/DEL464-472/INS464KGET) (protein)
chain: AQPSSQKATNHNLHITEKLEVLAKAYSVQGDKWRALGYAKAINALKSFHKPVTSYQEACSIPGIGKRMAEKIIEILESGHLRKLDHISESVPVLELFSNIWGAGTKTAQMWYQQGFRSLEDIRSQASLTTQQAIGLKHYSDFLERMPREEATEIEQTVQKAAQAFNSGLLCVACGSYRRGKATCGDVDVLITHPDGRSHRGIFSRLLDSLRQEGFLTDDLVSKGETYLGVCRLPGPGRRHRRLDIIVVPYSEFACALLYFTGSAHFNRSMRALAKTKGMSLSEHALSTAVVRNTHGAKVGPGRVLPTPTEKDVFRLLGLPYREPAERDW
notes: Δ1-241; Loop1 residues 464-472 replaced by KGET of Polβ; cleavable N-terminal 14-His tag; E. coli
Km [1]: 1893 (949.4 - 4602.0) nM

B2: Polλxt (Homo sapiens; C543A/DEL464-472/E529D/I492K/INS464KGET) (protein)
chain: B1 chain with I246K, E283D
notes: as for B1
Km [2]: 399.3 (247.1 - 607.0) nM

B3: Polλxt (Homo sapiens; C543A/DEL464-472/H530Y/I492R/INS464KGET/S528N) (protein)
chain: B1 chain with I246R, S282N, H284Y
notes: as for B1
Km [3]: 849.9 (587.8 - 1277.0) nM

B4: Polλxt (Homo sapiens; C543A/DEL464-472/I492K/INS464KGET) (protein)
chain: B1 chain with I246K
notes: as for B1
Km [4]: 494.7 (237.7 - 937.3) nM
